Test results as given in US20230241113A1 (IMMATICS BIOTECHNOLOGIES, published 2023).

Target: T1, HLA-A*02:01 (human)
T1 construct: captured on streptavidin plates, detected with anti-β2m; also called peptide-receptive MHC molecules; MHC class I
Experiment: UV-ligand exchange + anti-β2m ELISA; exchange yield grade: ≥10% +, ≥20% ++, ≥50 +++, ≥75% ++++
Protocol: The individual peptide-MHC complexes were produced by UV-ligand exchange, where a UV-sensitive peptide is cleaved upon UV-irradiation and exchanged with the peptide of interest as analyzed. Only peptide candidates that can effectively bind and stabilize the peptide-receptive MHC molecules prevent dissociation of the MHC complexes. To determine the yield of the exchange reaction, an ELISA was performed based on the detection of the light chain (β2m) of stabilized MHC complexes. The assay was performed as generally described in Rodenko et al. (Rodenko et al., 2006).
96 well MAXISorp plates (NUNC) were coated over night with 2 μg/ml streptavidin in PBS at room temperature, washed 4× and blocked for 1 h at 37° C. in 2% BSA containing blocking buffer. Refolded HLA-A*02:01/MLA-001 monomers served as standards, covering the range of 15-500 ng/ml. Peptide-MHC monomers of the UV-exchange reaction were diluted 100 fold in blocking buffer. Samples were incubated for 1 h at 37° C., washed four times, incubated with 2 μg/ml HRP conjugated anti-β2m for 1 h at 37° C., washed again and detected with TMB solution that is stopped with […]. Absorption was measured at 450 nm. Candidate peptides that show a high exchange yield (preferably higher than 50%, most preferred higher than 75%) are generally preferred for a generation and production of antibodies or fragments thereof, and/or T cell receptors or fragments thereof, as they show sufficient avidity to the MHC molecules and prevent dissociation of the MHC complexes.

Binder: LAASTTFLGV (also called LAASTTFLGV) [altORF-057]
- peptide exchange yield: ≥ 75%

Binder: ALHDSPVYL (also called ALHDSPVYL) [altORF-004]
- peptide exchange yield: ≥ 75%

Binder: LLLATLENL (also called LLLATLENL) [altORF-058]
- peptide exchange yield: ≥ 75%

Binder: VLPWQPLLL (also called VLPWQPLLL) [altORF-059]
- peptide exchange yield: 20 to 50%

Binder: SLLGKPGLTI (also called SLLGKPGLTI) [altORF-060]
- peptide exchange yield: ≥ 75%

Binder: LSFKRSLSI (also called LSFKRSLSI) [altORF-061]
- peptide exchange yield: 20 to 50%

Binder: LLLALRLSL (also called LLLALRLSL) [altORF-062]
- peptide exchange yield: 10 to 20%

Binder: IAISQLTFV (also called IAISQLTFV) [altORF-063]
- peptide exchange yield: ≥ 75%

Binder: ILNELLNSI (also called ILNELLNSI) [altORF-064]
- peptide exchange yield: ≥ 75%

Binder: ALKELMGPA (also called ALKELMGPA) [altORF-065]
- peptide exchange yield: 20 to 50%

Binder: KLLADAFKV (also called KLLADAFKV) [altORF-066]
- peptide exchange yield: ≥ 75%

Binder: LLCPVVLQL (also called LLCPVVLQL) [altORF-067]
- peptide exchange yield: ≥ 75%

Binder: ALWEEVKATSL (also called ALWEEVKATSL) [altORF-005]
- peptide exchange yield: ≥ 75%

Binder: LLLQIEPAA (also called LLLQIEPAA) [altORF-068]
- peptide exchange yield: ≥ 75%

Binder: WLMPVMPAL (also called WLMPVMPAL) [altORF-069]
- peptide exchange yield: ≥ 75%

B1: HERVK-002 (peptide)
peptide: STTIINLIL
notes: From a human endogenous retrovirus; also called STTIINLIL
- peptide exchange yield: 20 to 50%

B2: HERVK-003 (peptide)
peptide: TLLSYSIPL
notes: From a human endogenous retrovirus; also called TLLSYSIPL
- peptide exchange yield: ≥ 75%

Binder: KIIEDLANTV (also called KIIEDLANTV) [KRT18-001]
- peptide exchange yield: ≥ 75%

Binder: GLIDDKGTIKL (also called GLIDDKGTIKL) [CDC2-006]
- peptide exchange yield: ≥ 75%

Binder: SLMEVTHDL (also called SLMEVTHDL) [LARS-001]
- peptide exchange yield: ≥ 75%

Binder: ALMDGSESRFFV (also called ALMDGSESRFFV) [BSG-001]
- peptide exchange yield: ≥ 75%

Binder: SLGPPPVGV (also called SLGPPPVGV) [CIZ1-001]
- peptide exchange yield: ≥ 75%

Binder: KLPEGHLPEV (also called KLPEGHLPEV) [AHNAK2-003]
- peptide exchange yield: ≥ 75%

Binder: ILQSLVPAA (also called ILQSLVPAA) [altORF-006]
- peptide exchange yield: ≥ 75%

Binder: FLQEGDLISV (also called FLQEGDLISV) [altORF-007]
- peptide exchange yield: ≥ 75%
